{"source": "the DeepSol protein solubility set"}
{"assay": "soluble on expression in E. coli; label from the status in PepcDB or PDB records"}
{"sequence": "MSLNEESFEEFSMVLEDDLVGGTFSKVGEHNKRENEDFYITKDILDLNNVSESQGLCFYSGIFDGHGGSNCARYVMNHLKTNVIAKFRQSFLITCKKKFKEKGSKLNELSVELRALYDSCIKGFDMTDKNYIELSKKYNYKDGSTACIVLIYGPDDDGSLKVLCANCGDSGAFICHNKKPIKLSLRHKPDLQEERIRILKCGGIIANINGINRIITKHKDRNNLNENNNNKSKEKTFLALSTSRSFGDISYKIPRKIVQCKPFISVYTIDFDLDSFLVLATDGILNVLSDEEIIDIIWKNIHRKPEQAAEEVVNEATRRGSTDDKTCTVIFFYWRKEGHHHHHH", "soluble on expression in E. coli": "soluble"}
{"sequence": "MSLNEESYLVNRGKGVVRYDVVQVPSNSPIEDDHAEKIVEVPASTSAANEGQSSSDWMFWAVFDGHSGWTTSAKLRNVLISYVARELNATYKSASSDPSLVLPSSEAVDAAIKQGFVRLDNDIVHGSVNQVFKSNSRRAAAELLAPALSGSCALLAFYDSQTRDLKVACAGDSRAVLGRRSENGKWTATPLSEDQTGGTPSEMKRLREEHPGEPNVVRNGRILGQLEPSRSFGDAFYKWSKETQEKIKRQFFGRTPHPLLKTPPYVTAEPIITTTKVDPSQGDFLVLATDGLWEMLSNEEVVGLVGQWIEEQKAAAGAGTGNKSWVRSLFGSQPTEGHHHHHH", "soluble on expression in E. coli": "soluble"}
{"sequence": "MSLNELRKRVEIERSLHEAEFKALSYQINPHFLFNVLNTIGRLAFLEDAQRTETMVHDFSDMMRYLLRKNSHGLITLRNEINYVNNYMSIQKVRMRDRFDYLCDIPEKYLDVVCPFLILQPLVENFFNYVVEPRDSNSHLLIRATDDGLNVIIEVTDNGDGIAPDTINRILSGDQKLQKGSIGINNIKNRLKLLFGESYGLEIMSPNKPRMGTTIKLRFPMQEAEGHHHHHH", "soluble on expression in E. coli": "soluble"}
{"sequence": "MSLNGLNSECHFYQTDGDIVVRCAQINDAERLSQYFVDNRSHLIEWEPRREAEFFTESGWLQRLIKLNELHKMKLGYYLLILDAQNDAMLGTISFSNIIRFPFHACNVGYSLAYEAQGKGIMTRALTMACQYMFSEHNMHRIMASYIPHNKRSENVLKRVGFVLEGHAKDYLLINGKWEDHNLTSLINPNWKEEGHHHHHH", "soluble on expression in E. coli": "soluble"}
{"sequence": "MSLNIFNSVKKAEIHVHLEATITPDLCKKFAKRNNHEIPEEMFGSEYAYQWDDFYDFIKKYDIVTSVIHTPEDYFELTYEYLKDCAANNVLYVEAMISSTHAKEKGMTYNSFIEGVYEASKKAEEDFGIVSRYIMNGIRHLGPESVQGTAEEVLNNPHPCLVGFGLAGDELHFPPNLFVETFDMLKKENFPITVHAGEWDGPVNIRNAINLLHPTRLGHGVRSIEDPDLVKEIIDKDIILETCPTSNVATKIYKDYIDHPVKTLFDQGVKVTVNSDDPPFFKCTINGEYKVMEDLGEGHHHHHH", "soluble on expression in E. coli": "soluble"}
{"sequence": "MSLNITPHDQTGSQLQDSTLSQRAIQTVRYINNINDWRYNNPSQKDGVIPDSAFGWSSLPELHNVLQADRVYVYQPDQPGLMSALLAQSRHSALVGKVVARRLLDSFGNDMQVNVPDSIADGSLVYLNEGHHHHHH", "soluble on expression in E. coli": "soluble"}
{"sequence": "MSLNKKVVIDDVAKLAGVSKATISRYLNGKFEYMSEKTKDRIKESIEELNYRPNNIARSLKSNKSKLIGVVIADLTNPFSSIIIKGIGDECKARGYNMVIANSDNDVKQEEEYIKSLLDQRVEGIIVNSTGYNEEFLLSIKERGIPVSMVDRTFCEDKVDSVKSNNYDITVETINYLIDAGFNSLCFFTERLDNIKPRIERERAFIDVCSKRLKKENYNISVVDYSKAGNLEVNIYKFLNNYSGKKAIFAVNGVVLLHTLSAINKLNINVPKDLGICGYDNWGWAALIPPGITTISQPSYEMGSEAAKLVLDRIEGKASLGAVCKTLSAKLEIRGSTIPLNEGHHHHHH", "soluble on expression in E. coli": "not soluble"}
{"sequence": "MSLNKLCVAALSVNNFCDNREALYGVFDGDRNVEVPYLLQCTMSDILAEELQKTKNEEEYMVNTFIVMQRKLGTAGQKLGGAAVLCHIKHDPVDPGGSFTLTSANVGKCQTVLCRNGKPLPLSRSYIMSCEEELKRIKQHKAIITEDGKVNGVTESTRILGYTFLHPSVVPRPHVQSVLLTPQDEFFILGSKGLWDSLSVEEAVEAVRNVPDALAAAKKLCTLAQSYGCHDSISAVVVQLSVTEDEGHHHHHH", "soluble on expression in E. coli": "not soluble"}
{"sequence": "MSLNLVSEQLLAANGLNHQDLFAILGQLAERRLDYGDLYFQSSYHESWVLEDRIIKDGSYNIDQGVGVRAISGEKTGFAYADQISLLALEQSAQAARTIVRENGEGKVKTLAAVAHQPLYTTLDPLQSMSREEKLDILRRVDKAAREADKRVQEVNASLTGVYELILVAATDGTLAADVRPLVRLSVSVQVEEDGKRERGASGGGGRFGYEYFLADLDGEVRADAWAKEAVRMALVNLSAVAAPAGTLPVVLGAGWPGVLLHEAVGHGLEGDFNRRGTSVFSGQIGEQVASALCTVVDDGTMMNRRGSVAIDDEGTPGQYNVLIENGVLKGYMQDKLNARLMGAAPTGNGRRESYAHLPMPRMTNTYMLAGQSTPQEIIESVEYGIYAPNFGGGQVDITSGKFVFSTSEAYLIENGKVTTPVKGATLIGSGIETMQQISMVGNDLKLDNGVGVCGKEGQSLPVGVGQPTLKVDNLTVGGTA", "soluble on expression in E. coli": "not soluble"}
{"sequence": "MSLNMKTFKFFTALFATAILTACTLDMERPTNVQYIDKTDAIWQQHLQKIQKIQSYQAKGQIGYISPTERFSSRFEWQYQNPKSYTLKLYSLISKSTLWIQMHQSGMTISDNNGNQQSAANSKLLLQEIIGMDVPLEHLAYWLKGQPAMNADYQVGTNHLLGAFTYHVDGSQWTADYLTYHSNNSMPENILLKNDSTKQTLKIRVDEWIYEGGSHHHHHH", "soluble on expression in E. coli": "soluble"}
{"sequence": "MSLNMKVLITASSRGIGFNLAKELLNKGHEVTITSSNIRNIENAYKELRELGTVHYFQADLSSKEDIKRMVKDAWDAMGRIEALIWNAPNVKCEPCMVHEARYRDWLEAALLHLVSPGYITTLLIQAWLEKKIKGVLIYLSSASVLEPMPPLLLADTARAGLVQLTKGITRAYGGKGIRAYVVLLGSFDTPGARENLAKIAEERGMSLEEIWRKEVIERTPLKRTGKWSELGALIDFLLSENAEYMMGSTILFDGAMTRGVNEGHHHHHH", "soluble on expression in E. coli": "not soluble"}
{"sequence": "MSLNNLNTNIDFIKKSPKTELHLHIEGSLEPELMFKLSKRNKIEIPFKSVDEIRSAYNFTNLDSFLKIYYEGSNVLIREEDFFDLTWEYVLRCKQDNIVHTEIFFDPQSHLPRGISFETVINGIDKALKKAEKDFGISSKIIMCFLRHLDEESCFDVLKKAFDHKDKIIGVGLDSSEKGNPPSKFKRLFEQAVKEGFITVAHAGEEGPPEYIWDSLDILKVKRIDHGVQCLNDEKLVNKLVKEQIPLTVCPLSNVKLCVFDKLENHNLKKMLDKGLRVMVNSDDPAYFGGYLNKNLIETSRALNLNLVDIKKLIENSFKSSFLEKEKKENWLKKINEGHHHHHH", "soluble on expression in E. coli": "soluble"}
{"sequence": "MSLNNMIQVAIIGAGFIGPAHLEALRRLGDVEVVALCDSRLEAAQRKARALNIAHAYDSVEALLAHPGLQVVHNCTPNHLHAQINRQILAAGLHVFSEKPLCMTAGEARELVALAARAGVVHGVSFVYRQFAMVQQAAAMIRHGEVGRIFAAHGSYLQDWMLLETDYNWRVDSAQGGASRTVADIGSHWCDTVQFMTGRRIVEVMADLSIVWPTRKAPVNGKATFSAVHEAQAYETRPVDTEDFGSVLLRFDDGSKGSFMVSQVSAGRKNRLAVEINGSLCSLAWDQEVPQRLWIGHREQPDRLLSDDPSLLRPEIADSAHYPGGHIEGWPDAFKNMMGHFYQAVRAGKMPAAGARRFAAFDDGADVMYIIEAIVKSHQEQRWVSVEREGHHHHHH", "soluble on expression in E. coli": "soluble"}
{"sequence": "MSLNPTIQPYQFNIIKEQVAVLLNTYTSVNDATTVKTVQALCAEKINGLFPEEHPAVTILLDKVMDRRLTRARAEKYLDELKETVLPFKEPSTPQVTKVFRKVKKLKIPEWENMDLRNNTYVGWNDAGTQKIFILAYRENKLIGVHGTLSPTIVKGVCSICQTITNVSMFLATTKSGGDGTYTKKGNYICHDSDTCNQQLTQPEYLEAFMENVKAVKEGHHHHHH", "soluble on expression in E. coli": "soluble"}
{"sequence": "MSLNQQKKQAPVELKVGQTFPLTIKRLGINGEGVGYFKKKVVFVPGALPGEEVVVQATKVQPKFSEGRIKKIRKASEHRVAPPCPVYEQCGGCQLQHLAYSQQLREKRDIVIQSLERHTKFKVENMEIKETIGMDNPWNYRNKSQFQIGRSQSGSIIAGLYGLDSHDIVPIKDCIVQHPATNKTTGIVRRILEDFNVSVYNERKRKGDVRTIVTRVGFETGEVQVVLVTAKETLPHKEEIVKAIQKRLPEVKSIIQNVNGAKTSVIFGEKTKQLAGKTVIQEVLGDVSFELSARAFFQLNPEQTVKLYDEVKKAAQLTGKEKVVDAYCGVGTIGMWVADGAKEVRGMDVIKESIDDAKKNAKKHGMANATYVTGTAEHWLPKWTKEGFRPDVVIVDPPRTGCDSTFLDTIKKVKPKRFVYVSCNPSTLAKDLQTLSKDYRVDYIQPVDMFPQTAHVEAVARLVLKSSNEGHHHHHH", "soluble on expression in E. coli": "not soluble"}
{"sequence": "MSLNQRTLFDKIWDEHVVDVGADGTTLLYVDRHFLHEVTSPQAFRGLQLAGRRPWRSDANLAMPDHNVPTKDRAAHLDDALARAQIEALDRNCAEFAVPLFRLSDPRQGIVHVSGPEQGASLPGSVIVCGDSHTSTHGALATIAHGIGTSEVEHVLATQTLLARKPARMRVNFHGVAGAGVSAKDMALAMIAKVGAAGAQGYAIEYAGEAVRCLSVEARMTLCNMSIEAGARCGMVAVDDKTIEYLRGRPMAPRGESWDLAVRTWRALVSDHDAQFDVEIEIDVGMLGPLVTWGTSPDMVISVDEKIPDPAAEKDGTRRAGMERALRYMDLAPGTPITDVRLDRIFIGSCTNSRLEDLRAAAEVIRGKHVAASIRQALVVPGSGLVKQQAENEGLHQLFIDAGFEWRDAGCSMCVGMNADHLLSGERCASTSNRNFEDRQGVGGRTHLVSPAMAAAAAIAGHFVDIRRSEGHHHHHH", "soluble on expression in E. coli": "not soluble"}
{"sequence": "MSLNSEAFTGNAAQRFLFSSSDGTKIVSIADRGHLRWCHSTSTTYKSLDFDLQFEGKVEGAVSSTTADYVCIYNRDELHVLEVPWMYSGEENGLKHLCHIYSHKFDENHSIKQVLFHPKSYLDSTILVLTNDDSIFMINTDDNRSDKNMINLNSKNSALGLYDRINDIQKIIFSQDGLSLLILSAEEGCDIFTIYPCLPRRWDISLHEVDTLFAKSLLLYNNMNVNTTPQEKRNIVKQLNFMEKIRGQKTAFRNDKKPLILEDAYLNAQPQGPFSMTPYPNELYDFMATDINIIQITQNISLLAIAFSNGTVLLFLSDLEPIMSWDISRFPGSNSLALLEQIKLEITDNAKFLSIPGTYGKFVVTDNVKSNFFVNTCDWSTILAQIIDDSDIKLLANLKVKSNIENLQQLATTFKSIIYWKNENISCNYIISDKKIEELDEGHHHHHH", "soluble on expression in E. coli": "soluble"}
{"sequence": "MSLPEHTPSDRLALDAMLGKLATYLRMCGYDTAYALDRDAEADDDLLDIAEREDRLVITRDSDLATRAPESVLLSEREIEDQLRELADAGFRLSLAPEPDYCGVCNSPVEEVDPVEPTPEYAPSAGDERVWRCTDCGQHFWKGSHWASVEATLEDVEGHHHHHH", "soluble on expression in E. coli": "soluble"}
{"sequence": "MSLPLVTLNSVRFAGMATCVPKRVVSNLTDCKPQIRPERERLVRNIGIELRRLTQEWQCFSDLAFDAASKLIESLEWKLEEIDALIVVTQSPDYLAPATAIILQDRLGLPHTTLAFDVNLGCSGYPFGLHLLGSLISAGGIKKGLVLVGDSGAQLNDPIFSDAGTATAMEFCADAPPMYFDLNSDGSGHKAIILPVGGHREPVGIQHLVPFRENENDHWHRAIDLQLDGTAVLSFSTQRVPPAVEKLLEYANASKDEVDYFIFHQANRMINETIRKKLALPVEKVPSTLRDFGNTSGASLPVTMTARINKQLEEGSKRLVLSGFGIGLSWGTCLVDIQGAKFPDLIESEGHHHHHH", "soluble on expression in E. coli": "soluble"}
{"sequence": "MSLPNIDSLFVTRLYRAALSEHGPAIDAKEMEASCYSIAEDDEAGQGWCDENGYPGYTSYASLSDLPWRFPIFADLVKVLDAHVAAFAEDLEFDLDGKELKLEDIWINILPEGGMHASHIHPHSVISGTTYVAMPEGTSALKLEDPRSARMMASPVRRKDARQELRTFIYAKPVVGDVLLWESWLRHEVPMNMSEEDRISVSFNYSWGEGHHHHHH", "soluble on expression in E. coli": "soluble"}
